One substance from patent publication US20230183331A1 can be followed below.

The target of this test is IL-2 receptor (IL-2R) on primary pan T-cells from healthy donors (human) (UniProt P01589). As to the kind of experiment: cell-based or functional assay.
Sequence of IL-2 receptor (IL-2R) on primary pan T-cells from healthy donors (human) (P01589 22-272, chain 1 of 3): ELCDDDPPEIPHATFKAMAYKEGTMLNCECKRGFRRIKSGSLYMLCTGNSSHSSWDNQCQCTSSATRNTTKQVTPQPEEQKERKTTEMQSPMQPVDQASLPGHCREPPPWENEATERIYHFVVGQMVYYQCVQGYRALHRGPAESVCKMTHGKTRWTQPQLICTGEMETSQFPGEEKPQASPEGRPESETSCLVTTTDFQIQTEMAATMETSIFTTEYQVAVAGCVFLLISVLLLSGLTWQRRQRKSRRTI
Sequence of IL-2 receptor (IL-2R) on primary pan T-cells from healthy donors (human) (P14784 27-551, chain 2 of 3, further chain): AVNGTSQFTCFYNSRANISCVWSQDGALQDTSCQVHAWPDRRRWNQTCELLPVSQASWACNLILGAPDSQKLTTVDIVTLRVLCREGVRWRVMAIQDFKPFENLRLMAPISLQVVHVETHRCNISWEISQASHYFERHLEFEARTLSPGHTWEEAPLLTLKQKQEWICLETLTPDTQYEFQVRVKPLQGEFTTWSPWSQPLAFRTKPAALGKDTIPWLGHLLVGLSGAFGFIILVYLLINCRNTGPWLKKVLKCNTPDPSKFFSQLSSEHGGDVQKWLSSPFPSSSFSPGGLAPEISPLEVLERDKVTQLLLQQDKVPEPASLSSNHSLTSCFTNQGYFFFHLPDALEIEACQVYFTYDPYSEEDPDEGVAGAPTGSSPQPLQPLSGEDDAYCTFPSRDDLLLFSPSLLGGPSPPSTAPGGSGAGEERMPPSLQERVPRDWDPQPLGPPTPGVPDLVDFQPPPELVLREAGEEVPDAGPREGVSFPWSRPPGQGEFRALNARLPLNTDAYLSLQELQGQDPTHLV
Sequence of IL-2 receptor (IL-2R) on primary pan T-cells from healthy donors (human) (P31785 23-369, chain 3 of 3, further chain): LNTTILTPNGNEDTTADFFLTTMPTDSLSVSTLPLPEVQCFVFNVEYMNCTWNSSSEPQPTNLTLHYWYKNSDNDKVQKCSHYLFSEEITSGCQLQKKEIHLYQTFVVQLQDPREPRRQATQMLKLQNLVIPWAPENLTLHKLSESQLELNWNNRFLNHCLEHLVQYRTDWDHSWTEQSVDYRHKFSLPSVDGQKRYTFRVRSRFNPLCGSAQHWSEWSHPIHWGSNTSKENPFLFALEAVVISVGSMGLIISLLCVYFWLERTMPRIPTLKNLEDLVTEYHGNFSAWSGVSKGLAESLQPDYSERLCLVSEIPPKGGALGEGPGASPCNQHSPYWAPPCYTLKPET

As for “Aldesleukin (from UniProt P60568 22-153) (ligand)”, the CD8 EC50 (nM), STAT5 phosphorylation is 9.07 nM; the CD8 naïve EC50 (nM), STAT5 phosphorylation amounted to 477 nM; the Treg EC50 (nM), STAT5 phosphorylation worked out at 0.019 nM.
